For series [1], the system named is HeLa Kyoto. Nature of the series: solubility change mitosis vs G1/S (difference of NP-40 vs SDS log2 ratios) (log2 ratio difference); higher = more soluble in mitosis.
In series [2] the test system is HeLa Kyoto. Briefly: solubility in G1/S (NP-40 vs SDS abundance) (log2 ratio); higher = more soluble. The settings on record: cell cycle stage: G1/S.
Series [3] deals with HeLa Kyoto. Briefly: thermal stability score vs G1/S (z-score of summed log2 fold changes over temperatures); higher = more thermally stable than in G1/S.
Series [4] deals with HeLa Kyoto. Briefly: melting temperature (median over replicates), in situ; higher = more thermally stable.
The mark [5] stands for this setting: cell cycle stage: early G1 (4.5 h after nocodazole release).
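Throughout, for melting temperature (median over replicates), in situ: HeLa Kyoto cells synchronized by double thymidine or nocodazole block, proteins quantified by TMT10plex mass spectrometry, three independent biological replicates.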
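Throughout, for solubility change mitosis vs G1/S (difference of NP-40 vs SDS log2 ratios): synchronized HeLa Kyoto cells (double thymidine block for G1/S, nocodazole release for mitosis), protein amounts in NP-40 versus SDS lysates quantified by mass spectrometry, three biological replicates.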
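Throughout, for solubility in G1/S (NP-40 vs SDS abundance): HeLa Kyoto cells arrested at G1/S by double thymidine block, proteins quantified by TMT10plex mass spectrometry in mild NP-40 versus SDS extracts, three biological replicates.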
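Throughout, for thermal stability score vs G1/S (z-score of summed log2 fold changes over temperatures): synchronized HeLa Kyoto cells, proteins quantified by TMT10plex mass spectrometry, three biological replicates, mitosis taken 0.5 h after nocodazole release, G1/S directly after double thymidine block.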

In the case of “MADDQGCIEEQGVEDSANEDSVDAKPDRSSFVPSLFSKKKKNVTMRSIKTTRDRVPTYQYNMNFEKLGKCIIINNKNFDKVTGMGVRNGTDKDAEALFKCFRSLGFDVIVYNDCSCAKMQDLLKKASEEDHTNAACFACILLSHGEENVIYGKDGVTPIKDLTAHFRGDRCKTLLEKPKLFFIQACRGTELDDGIQADSGPINDTDANPRYKIPVEADFLFAYSTVPGYYSWRSPGRGSWFVQALCSILEEHGKDLEIMQILTRVNDRVARHFESQSDDPHFHEKKQIPCVVSMLTKELYFSQ [CASP7]”, in the series on HeLa Kyoto [1], the “solubility change mitosis (log2)” value came to 0.00474. Besides, the “solubility in G1/S (log2)” value in the series on HeLa Kyoto [2] was found to be 0.0897. The thermal stability score was -0.531 in the series on HeLa Kyoto [3] (setting [5]) and -2.43 with HeLa Kyoto [3] (cell cycle stage: mitosis). Also, the results for the melting temperature with HeLa Kyoto [4] (cell cycle stage: G1/S) and in the series on HeLa Kyoto [4] (cell cycle stage: mitosis) were 53.9 °C and 54.2 °C, respectively.
Turning to “MADEGKSYSEHDDERVNFPQRKKKGRGPFRWKYGEGNRRSGRGGSGIRSSRLEEDDGDVAMSDAQDGPRVRYNPYTTRPNRRGDTWHDRDRIHVTVRRDRAPPERGGAGTSQDGTSKNWFKITIPYGRKYDKAWLLSMIQSKCSVPFTPIEFHYENTRAQFFVEDASTASALKAVNYKILDRENRRISIIINSSAPPHTILNELKPEQVEQLKLIMSKRYDGSQQALDLKGLRSDPDLVAQNIDVVLNRRSCMAATLRIIEENIPELLSLNLSNNRLYRLDDMSSIVQKAPNLKILNLSGNELKSERELDKIKGLKLEELWLDGNSLCDTFRDQSTYISAIRERFPKLLRLDGHELPPPIAFDVEAPTTLPPCKGSYFGTENLKSLVLHFLQQYYAIYDSGDRQGLLDAYHDGACCSLSIPFIPQNPARSSLAEYFKDSRNVKKLKDPTLRFRLLKHTRLNVVAFLNELPKTQHDVNSFVVDISAQTSTLLCFSVNGVFKEVDGKSRDSLRAFTRTFIAVPASNSGLCIVNDELFVRNASSEEIQRAFAMPAPTPSSSPVPTLSPEQQEMLQAFSTQSGMNLEWSQKCLQDNNWDYTRSAQAFTHLKAKGEIPEVAFMK [NXF1]”, the “solubility change mitosis (log2)” value in the series with HeLa Kyoto [1] came to 0.533. Besides, the “solubility in G1/S (log2)” value with HeLa Kyoto [2] is -0.89. The thermal stability score worked out at 1.64 in the series with HeLa Kyoto [3] (setting [5]) and 4.14 in the series with HeLa Kyoto [3] (cell cycle stage: mitosis). The figures for the melting temperature in the series with HeLa Kyoto [4] (cell cycle stage: G1/S) and with HeLa Kyoto [4] (cell cycle stage: mitosis) were 47.3 °C and 49.1 °C, respectively.
For “MADGELNVDSLITRLLEVRGCRPGKIVQMTEAEVRGLCIKSREIFLSQPILLELEAPLKICGDIHGQYTDLLRLFEYGGFPPEANYLFLGDYVDRGKQSLETICLLLAYKIKYPENFFLLRGNHECASINRIYGFYDECKRRFNIKLWKTFTDCFNCLPIAAIVDEKIFCCHGGLSPDLQSMEQIRRIMRPTDVPDTGLLCDLLWSDPDKDVQGWGENDRGVSFTFGADVVSKFLNRHDLDLICRAHQVVEDGYEFFAKRQLVTLFSAPNYCGEFDNAGGMMSVDETLMCSFQILKPSEKKAKYQYGGLNSGRPVTPPRTANPPKKR [PPP1CB]”, the “solubility change mitosis (log2)” value with HeLa Kyoto [1] was determined as 0.0171. Besides, the “solubility in G1/S (log2)” value with HeLa Kyoto [2] is -0.161. The thermal stability score with HeLa Kyoto [3] (setting [5]) worked out at 0.423; with HeLa Kyoto [3] (cell cycle stage: mitosis) it was 0.737. The values for the melting temperature in the series on HeLa Kyoto [4] (cell cycle stage: G1/S) and with HeLa Kyoto [4] (cell cycle stage: mitosis) were 52.3 °C and 52.1 °C, respectively.
As to “MADGQMPFSCHYPSRLRRDPFRDSPLSSRLLDDGFGMDPFPDDLTASWPDWALPRLSSAWPGTLRSGMVPRGPTATARFGVPAEGRTPPPFPGEPWKVCVNVHSFKPEELMVKTKDGYVEVSGKHEEKQQEGGIVSKNFTKKIQLPAEVDPVTVFASLSPEGLLIIEAPQVPPYSTFGESSFNNELPQDSQEVTCT [HSPB8]”, the “solubility change mitosis (log2)” value in the series with HeLa Kyoto [1] was determined as 0.167. The “solubility in G1/S (log2)” value in the series with HeLa Kyoto [2] turned out to be 0.653. Also, the thermal stability score in the series on HeLa Kyoto [3] (setting [5]) was -0.244; with HeLa Kyoto [3] (cell cycle stage: mitosis), 0.347. For the same sequence, the melting temperature in the series on HeLa Kyoto [4] (cell cycle stage: G1/S) came to 52.3 °C; in the series on HeLa Kyoto [4] (cell cycle stage: mitosis), 52.1 °C.
As for “MADGQVAELLLRRLEASDGGLDSAELAAELGMEHQAVVGAVKSLQALGEVIEAELRSTKHWELTAEGEEIAREGSHEARVFRSIPPEGLAQSELMRLPSGKVGFSKAMSNKWIRVDKSAADGPRVFRVVDSMEDEVQRRLQLVRGGQAEKLGEKERSELRKRKLLAEVTLKTYWVSKGSAFSTSISKQETELSPEMISSGSWRDRPFKPYNFLAHGVLPDSGHLHPLLKVRSQFRQIFLEMGFTEMPTDNFIESSFWNFDALFQPQQHPARDQHDTFFLRDPAEALQLPMDYVQRVKRTHSQGGYGSQGYKYNWKLDEARKNLLRTHTTSASARALYRLAQKKPFTPVKYFSIDRVFRNETLDATHLAEFHQIEGVVADHGLTLGHLMGVLREFFTKLGITQLRFKPAYNPYTEPSMEVFSYHQGLKKWVEVGNSGVFRPEMLLPMGLPENVSVIAWGLSLERPTMIKYGINNIRELVGHKVNLQMVYDSPLCRLDAEPRPPPTQEAA [FARSA]”, in the series on HeLa Kyoto [1], the “solubility change mitosis (log2)” value was -0.0944. Further, the “solubility in G1/S (log2)” value in the series with HeLa Kyoto [2] turned out to be 0.0439. In addition, the thermal stability score was 0.422 in the series on HeLa Kyoto [3] (setting [5]) and 0.356 in the series with HeLa Kyoto [3] (cell cycle stage: mitosis). Further, the figures for the melting temperature in the series on HeLa Kyoto [4] (cell cycle stage: G1/S) and with HeLa Kyoto [4] (cell cycle stage: mitosis) were 50.2 °C and 50.4 °C, respectively.

The record behind these values is the supplement of paper PMC5998384.
